Results as given in PMC11484851, “Structure of endothelin ETB receptor–Gi complex in a conformation stabilized by unique NPxxL motif” (Communications Biology, 2024).

Target: T1, wild-type Gαi1 subunit (human, UniProt P63096 1-354)
T1 construct: Gαi1, human, wild type; the α chain of m4; source: Sf9 or Hi5 insect cells, co-expressed with Gβ1 and Gγ2, purified as heterotrimer (TALON, SEC)
Experiment: cryo-EM structure; purified ET-1-bound ETBR mixed with 1.2 molar excess of wild-type or dominant negative Gi1 heterotrimer (20-24 °C, 2 h), apyrase and λ-phosphatase, then 1.2 molar excess of scFv16; complex purified on 2A5 anti-ETBR resin and by SEC in LMNG/CHS/GDN with 0.1 μM ET-1; single-particle cryo-EM
Settings: both partners purified

T1 sequence (P63096 whole entry): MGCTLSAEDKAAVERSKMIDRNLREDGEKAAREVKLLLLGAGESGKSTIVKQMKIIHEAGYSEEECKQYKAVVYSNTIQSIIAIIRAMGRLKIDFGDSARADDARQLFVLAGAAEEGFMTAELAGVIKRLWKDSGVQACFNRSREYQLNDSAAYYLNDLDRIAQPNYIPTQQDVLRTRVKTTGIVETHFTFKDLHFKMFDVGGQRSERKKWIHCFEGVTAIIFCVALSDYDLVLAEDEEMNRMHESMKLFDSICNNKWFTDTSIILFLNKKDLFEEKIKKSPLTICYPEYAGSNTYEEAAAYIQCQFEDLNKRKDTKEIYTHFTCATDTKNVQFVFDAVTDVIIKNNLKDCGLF

B1: endothelin type B receptor, thermostabilized construct used for cryo-EM (R124Y, C396A, C400A, C405A, L66-S407 after 3C cleavage) (receptor, human, UniProt P24530 66-407, looked up)
chain: LAPAEVPKGDRTAGSPPRTISPPPCQGPIEIKETFKYINTVVSCLVFVLGIIGNSTLLYIIYKNKCMRNGPNILIASLALGDLLHIVIDIPINVYKLLAEDWPFGAEMCKLVPFIQKASVGITVLSLCALSIDRYRAVASWSRIKGIGVPKWTAVEIVLIWVVSVVLAVPEAIGFDIITMDYKGSYLRICLLHPVQKTAFMQFYKTAKDWWLFSFYFCLPLAITAFFYTLMTCEMLRKKSGMQIALNDHLKQRREVAKTVFCLVLVFALCWLPLHLSRILKLTLYNQNDPNRCELLSFLLVLDYIGINMASLNSCINPIALYLVSKRFKNAFKSALCCWAQS
notes: endothelin type B receptor (ETBR), human; C-terminus truncated at S407, followed by a 3C site and EGFP-His tag that was cleaved; Residues of the 3C sites probably remain after cleavage (GP before L66, LEVLFQ after S407); also called ETBR; ETB receptor; source: Sf9, purified (TALON, 3C cleavage, SEC) in LMNG/CHS with ET-1; not shown: Flag, N-terminal, cleaved; EGFP-His9, C-terminal, cleaved
B1: binds.
